Measured values taken from US20180258163A1 (Chugai, published 2018).
Numbering of substitutions follows the chain as printed. Numbers in names are those of the source. Like-named read-outs stand apart in the source and are kept apart here.

Tests used:
soluble human FcγRIIb [1] = target: T1, soluble human FcγRIIb (human, UniProt P31994 43-217, limits assumed); experiment: SPR, Ab-IgE complex over captured hFcγRIIb, pH 7.4, 25C
T1 construct: soluble His-tagged form; also called hFcγRIIb
T1 sequence (looked up): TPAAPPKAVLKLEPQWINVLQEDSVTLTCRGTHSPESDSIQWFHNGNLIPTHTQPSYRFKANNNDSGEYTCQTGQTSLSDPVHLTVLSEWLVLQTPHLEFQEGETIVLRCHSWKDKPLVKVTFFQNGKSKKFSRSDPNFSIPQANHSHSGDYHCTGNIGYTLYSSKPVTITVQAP
Protocol: (§1) Regarding the produced Fc region variant-containing antibodies, binding assays between soluble human FcγRIIb and antigen-antibody complexes were performed using BIACORE T200 (GE Healthcare). Soluble human FcγRIIb (NCBI accession NM_004001.3) was produced in the form of a His-tagged molecule by a method known in the art. An appropriate amount of an anti-His antibody was fixed onto Sensor chip CM5 (GE Healthcare) by the amine coupling method using a His capture kit (GE Healthcare) to capture human FcγRIIb. Next, an antibody-antigen complex and a running buffer (as a reference solution) were injected, and interaction was allowed to take place with the human FcγRIIb captured onto the sensor chip. 20 mM N-(2-Acetamido)-2-aminoethanesulfonic acid, 150 mM NaCl, 1.2 mM CaCl₂, and 0.05% (w/v) Tween 20 at pH 7.4 was used as the running buffer, and the respective buffer was also used to dilute the soluble human FcγRIIb. To regenerate the sensor chip, 10 mM glycine-HCl at pH 1.5 was used. All measurements were carried out at 25° C. Analyses were performed based on binding (RU) calculated from sensorgrams obtained by the measurements, and relative values when the binding amount of Ab1H/Ab1L (original Ab1) was defined as 1.00 are shown. To calculate the parameters, the BIACORE T100 Evaluation Software (GE Healthcare) was used.

soluble human FcγRIIb [2] = target: T1, soluble human FcγRIIb; experiment: as above; remark: listed apart in the source
Protocol: as §1

human IgE [3] = target: T2, human IgE (human, UniProt P01854-1 1-428); experiment: SPR, IgE on chip, Ab analyte, pH 5.8, 37C
T2 construct: whole IgE; also called hIgE
Protocol: (§2) Affinities of Ab2 and Ab3 for human IgE at pH 7.4 and pH 5.8 were evaluated as follows. The binding activity (dissociation constant KD (M)) of anti-hIgE antibodies toward hIgE were evaluated using BIACORE T200 (GE Healthcare). Measurements were carried out using the following two buffers as the running buffers: (1) 1.2 mM CaCl₂/0.05% tween 20, 20 mM ACES, 150 mM NaCl, pH 7.4; and (2) 1.2 mM CaCl₂/0.05% tween 20, 20 mM ACES, 150 mM NaCl, pH 5.8.
(§3) Then, to regenerate the sensor chip, 10 mM glycine-HCl at pH 1.5 was injected. All measurements were carried out at 37° C. Association rate constants ka (1/Ms) and dissociation rate constants kd (1/s) were calculated by analyzing the measurement results by curve-fitting using the BIACORE T200 Evaluation Software (GE Healthcare), and dissociation constants KD (M) were calculated based on those values.

human IgE [4] = target: T2, human IgE; experiment: SPR, IgE on chip, Ab analyte, pH 7.4, 37C
Protocol: as §2, §3

human IL-8 = target: T3, human IL-8 (human, UniProt P10145 23-99, limits assumed); experiment: SPR pH 5.8 37C
T3 construct: also called hIL-8
T3 sequence: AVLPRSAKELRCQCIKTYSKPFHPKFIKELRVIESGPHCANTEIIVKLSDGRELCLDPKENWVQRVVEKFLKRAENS
Protocol: The following two running buffers were used, and measurements were carried out at the respective temperatures: (1) 0.05% tween20, 40 mM ACES, 150 mM NaCl, pH 7.4, 40° C.: and (2) 0.05% tween20, 40 mM ACES, 150 mM NaCl, pH 5.8, 37° C.
An appropriate amount of Protein A/G (PIERCE) was immobilized onto the Sensor chip CM4 (GE Healthcare) by the amine coupling method and the antibodies of interest were captured. Next, a diluted human IL-8 solution or a running buffer (used as a reference solution) was injected to allow interaction of the antibodies captured onto the sensor chip with human IL-8. For the running buffer, either one of the above-mentioned solutions was used, and the respective buffers were also used to dilute human IL-8. To regenerate the sensor chip, 25 mM NaOH and 10 mM glycine-HCl (pH 1.5) were used. KD (M) of each antibody for human IL-8 was calculated based on the association rate constant kon (1/Ms) and dissociation rate constant koff (1/s) which are kinetic parameters calculated from sensorgrams obtained by the measurements. The BIACORE T200 Evaluation Software (GE Healthcare) was used to calculate each parameter.

T2 sequence (P01854 other isoform, or with tags, fused parts or gaps): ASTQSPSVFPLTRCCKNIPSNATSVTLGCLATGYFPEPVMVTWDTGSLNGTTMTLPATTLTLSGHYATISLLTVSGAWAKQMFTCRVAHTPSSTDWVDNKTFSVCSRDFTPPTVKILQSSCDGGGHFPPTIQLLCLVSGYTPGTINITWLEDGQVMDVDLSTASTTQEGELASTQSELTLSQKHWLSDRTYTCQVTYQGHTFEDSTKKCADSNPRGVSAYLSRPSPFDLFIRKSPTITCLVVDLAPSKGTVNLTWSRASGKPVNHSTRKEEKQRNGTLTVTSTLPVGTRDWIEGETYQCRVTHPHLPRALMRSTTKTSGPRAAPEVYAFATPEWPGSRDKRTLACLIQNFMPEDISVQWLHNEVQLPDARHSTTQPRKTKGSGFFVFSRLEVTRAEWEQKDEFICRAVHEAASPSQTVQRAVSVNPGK

B1: Ab1H034/Ab1L (antibody, human IgG1, kappa, name in Kabat numbering)
heavy: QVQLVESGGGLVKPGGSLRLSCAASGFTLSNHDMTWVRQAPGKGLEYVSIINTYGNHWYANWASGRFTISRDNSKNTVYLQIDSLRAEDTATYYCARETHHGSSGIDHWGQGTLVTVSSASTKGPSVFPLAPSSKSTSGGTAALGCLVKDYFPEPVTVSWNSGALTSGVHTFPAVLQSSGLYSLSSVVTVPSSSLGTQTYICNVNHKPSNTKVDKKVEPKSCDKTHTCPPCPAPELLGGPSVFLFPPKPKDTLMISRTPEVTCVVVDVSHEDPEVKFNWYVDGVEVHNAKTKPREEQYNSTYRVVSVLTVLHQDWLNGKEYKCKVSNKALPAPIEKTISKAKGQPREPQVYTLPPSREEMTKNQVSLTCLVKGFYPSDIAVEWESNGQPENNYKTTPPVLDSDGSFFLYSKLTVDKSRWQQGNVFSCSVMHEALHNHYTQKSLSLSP
light: DIQMTQSPSSVSASVGDRVTITCQASESIYSGLAWYQQKPGQPPKLLIYDHSTLASGVPSRFSGSGSGTEYALTISSLQPEDFATYYCQHADYAHHSDNVFGGGTKVEIKRTVAAPSVFIFPPSDEQLKSGTASVVCLLNNFYPREAKVQWKVDNALQSGNSQESVTEQDSKDSTYSLSSTLTLSKADYEKHKVYACEVTHQGLSSPVTKSFNRGEC
notes: copies: 2 + 2
BIACORE fold (relative binding, original Ab1=1.00) (soluble human FcγRIIb [1]): 1.21 fold

B2: Ab1H035/Ab1L (antibody, human IgG1, kappa, name in Kabat numbering)
heavy: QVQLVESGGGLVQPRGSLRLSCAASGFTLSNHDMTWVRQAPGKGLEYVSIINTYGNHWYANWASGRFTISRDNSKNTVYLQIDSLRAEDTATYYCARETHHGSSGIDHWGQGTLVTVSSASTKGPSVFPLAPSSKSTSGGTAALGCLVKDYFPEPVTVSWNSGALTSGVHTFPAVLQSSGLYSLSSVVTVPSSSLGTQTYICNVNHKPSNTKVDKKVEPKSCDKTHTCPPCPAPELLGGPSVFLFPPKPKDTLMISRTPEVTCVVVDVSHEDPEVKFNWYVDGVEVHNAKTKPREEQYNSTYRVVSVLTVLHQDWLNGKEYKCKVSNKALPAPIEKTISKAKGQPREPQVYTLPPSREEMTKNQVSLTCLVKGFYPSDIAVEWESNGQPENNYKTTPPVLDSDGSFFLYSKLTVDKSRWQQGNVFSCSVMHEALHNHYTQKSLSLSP
light: B1 light
notes: copies: 2 + 2
BIACORE fold (relative binding, original Ab1=1.00) (soluble human FcγRIIb [1]): 1.28 fold

B3: Ab1H039/Ab1L (antibody, human IgG1, kappa, name in Kabat numbering)
heavy: not shown
light: B1 light
notes: copies: 2 + 2
BIACORE fold (relative binding, original Ab1=1.00) (soluble human FcγRIIb [1]): 1.57 fold

B4: Ab1H041m/Ab1L (antibody, human IgG1, kappa, name in Kabat numbering)
heavy: not shown
light: B1 light
notes: copies: 2 + 2
BIACORE fold (relative binding, original Ab1=1.00) (soluble human FcγRIIb [1]): 1.52 fold

B5: Ab1H045/Ab1L (antibody, human IgG1, kappa, name in Kabat numbering)
heavy: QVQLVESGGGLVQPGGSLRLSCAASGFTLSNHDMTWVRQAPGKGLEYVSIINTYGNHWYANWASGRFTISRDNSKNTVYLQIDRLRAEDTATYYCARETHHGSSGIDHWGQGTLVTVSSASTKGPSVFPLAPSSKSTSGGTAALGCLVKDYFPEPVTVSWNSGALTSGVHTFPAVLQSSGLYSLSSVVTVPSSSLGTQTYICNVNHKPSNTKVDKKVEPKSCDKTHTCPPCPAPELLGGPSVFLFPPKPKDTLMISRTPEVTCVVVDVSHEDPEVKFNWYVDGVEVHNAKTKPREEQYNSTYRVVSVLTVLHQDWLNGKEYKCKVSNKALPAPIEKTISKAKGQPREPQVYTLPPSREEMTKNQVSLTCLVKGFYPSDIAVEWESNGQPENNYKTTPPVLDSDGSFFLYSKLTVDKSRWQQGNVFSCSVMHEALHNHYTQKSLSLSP
light: B1 light
notes: copies: 2 + 2
BIACORE fold (relative binding, original Ab1=1.00) (soluble human FcγRIIb [1]): 0.76 fold

B6: Ab1H-P1394m/Ab1L (antibody, human IgG1, kappa)
heavy: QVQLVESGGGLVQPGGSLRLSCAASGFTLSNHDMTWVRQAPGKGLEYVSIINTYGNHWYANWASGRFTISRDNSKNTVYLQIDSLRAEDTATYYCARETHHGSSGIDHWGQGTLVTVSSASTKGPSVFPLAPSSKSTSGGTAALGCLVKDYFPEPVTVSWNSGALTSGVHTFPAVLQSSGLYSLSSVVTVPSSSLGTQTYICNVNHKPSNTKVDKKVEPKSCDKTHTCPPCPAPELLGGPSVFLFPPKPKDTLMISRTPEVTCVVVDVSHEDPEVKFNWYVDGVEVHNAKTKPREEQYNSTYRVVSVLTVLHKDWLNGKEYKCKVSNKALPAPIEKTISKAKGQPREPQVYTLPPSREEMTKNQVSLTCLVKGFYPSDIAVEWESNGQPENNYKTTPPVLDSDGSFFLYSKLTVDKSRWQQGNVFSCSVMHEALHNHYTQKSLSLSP
light: B1 light
notes: heavy chain = Ab1H with Q311K (EU); copies: 2 + 2
BIACORE fold (relative binding, original Ab1=1.00) (soluble human FcγRIIb [2]): 1.18 fold

B7: Ab1H-P1398m/Ab1L (antibody, human IgG1, kappa, name in EU numbering)
heavy: not shown
light: B1 light
notes: copies: 2 + 2
BIACORE fold (relative binding, original Ab1=1.00) (soluble human FcγRIIb [2]): 1.23 fold

B8: Ab1H-P1466m/Ab1L (antibody, human IgG1, kappa, name in EU numbering)
heavy: not shown
light: B1 light
notes: copies: 2 + 2
BIACORE fold (relative binding, original Ab1=1.00) (soluble human FcγRIIb [2]): 1.22 fold

B9: Ab1H-P1468m/Ab1L (antibody, human IgG1, kappa, name in EU numbering)
heavy: not shown
light: B1 light
notes: copies: 2 + 2
BIACORE fold (relative binding, original Ab1=1.00) (soluble human FcγRIIb [2]): 1.13 fold

B10: Ab1H-P1469m/Ab1L (antibody, human IgG1, kappa, name in EU numbering)
heavy: not shown
light: B1 light
notes: copies: 2 + 2
BIACORE fold (relative binding, original Ab1=1.00) (soluble human FcγRIIb [2]): 1.13 fold

B11: Ab1H-P1470m/Ab1L (antibody, human IgG1, kappa, name in EU numbering)
heavy: not shown
light: B1 light
notes: copies: 2 + 2
BIACORE fold (relative binding, original Ab1=1.00) (soluble human FcγRIIb [2]): 1.19 fold

B12: Ab1H-P1471m/Ab1L (antibody, human IgG1, kappa, name in EU numbering)
heavy: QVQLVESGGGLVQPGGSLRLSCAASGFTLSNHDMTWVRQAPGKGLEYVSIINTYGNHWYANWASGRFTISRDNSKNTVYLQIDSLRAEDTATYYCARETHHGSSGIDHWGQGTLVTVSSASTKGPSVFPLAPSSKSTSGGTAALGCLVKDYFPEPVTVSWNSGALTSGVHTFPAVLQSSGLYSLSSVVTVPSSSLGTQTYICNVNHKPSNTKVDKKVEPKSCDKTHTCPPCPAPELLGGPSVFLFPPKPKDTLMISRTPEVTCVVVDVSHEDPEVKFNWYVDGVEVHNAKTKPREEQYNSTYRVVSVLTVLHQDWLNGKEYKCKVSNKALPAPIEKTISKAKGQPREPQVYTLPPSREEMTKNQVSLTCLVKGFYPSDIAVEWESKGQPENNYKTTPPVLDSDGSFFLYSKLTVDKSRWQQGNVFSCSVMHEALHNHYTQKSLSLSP
light: B1 light
notes: copies: 2 + 2
BIACORE fold (relative binding, original Ab1=1.00) (soluble human FcγRIIb [2]): 1.19 fold

B13: Ab1H-P1480m/Ab1L (antibody, human IgG1, kappa, name in EU numbering)
heavy: not shown
light: B1 light
BIACORE fold (relative binding, original Ab1=1.00) (soluble human FcγRIIb [2]): 1.03 fold

B14: Ab1H-P1481m/Ab1L (antibody, human IgG1, kappa, name in EU numbering)
heavy: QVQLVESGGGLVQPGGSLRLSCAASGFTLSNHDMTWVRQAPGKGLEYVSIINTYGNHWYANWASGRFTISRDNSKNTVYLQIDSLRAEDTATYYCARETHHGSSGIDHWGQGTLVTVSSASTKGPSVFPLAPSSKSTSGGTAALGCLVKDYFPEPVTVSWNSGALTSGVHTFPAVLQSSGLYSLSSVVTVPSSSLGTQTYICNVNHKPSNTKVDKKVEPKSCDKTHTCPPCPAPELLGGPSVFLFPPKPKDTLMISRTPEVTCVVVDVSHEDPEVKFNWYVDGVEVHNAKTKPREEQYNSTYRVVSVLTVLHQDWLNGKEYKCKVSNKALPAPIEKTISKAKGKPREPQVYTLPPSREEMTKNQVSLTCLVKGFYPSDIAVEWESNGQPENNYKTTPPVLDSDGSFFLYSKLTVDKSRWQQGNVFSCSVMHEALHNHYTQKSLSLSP
light: B1 light
BIACORE fold (relative binding, original Ab1=1.00) (soluble human FcγRIIb [2]): 1.08 fold

B15: Ab1H-P1482m/Ab1L (antibody, human IgG1, kappa, name in EU numbering)
heavy: not shown
light: B1 light
BIACORE fold (relative binding, original Ab1=1.00) (soluble human FcγRIIb [2]): 1.46 fold

B16: Ab1H-P1483m/Ab1L (antibody, human IgG1, kappa, name in EU numbering)
heavy: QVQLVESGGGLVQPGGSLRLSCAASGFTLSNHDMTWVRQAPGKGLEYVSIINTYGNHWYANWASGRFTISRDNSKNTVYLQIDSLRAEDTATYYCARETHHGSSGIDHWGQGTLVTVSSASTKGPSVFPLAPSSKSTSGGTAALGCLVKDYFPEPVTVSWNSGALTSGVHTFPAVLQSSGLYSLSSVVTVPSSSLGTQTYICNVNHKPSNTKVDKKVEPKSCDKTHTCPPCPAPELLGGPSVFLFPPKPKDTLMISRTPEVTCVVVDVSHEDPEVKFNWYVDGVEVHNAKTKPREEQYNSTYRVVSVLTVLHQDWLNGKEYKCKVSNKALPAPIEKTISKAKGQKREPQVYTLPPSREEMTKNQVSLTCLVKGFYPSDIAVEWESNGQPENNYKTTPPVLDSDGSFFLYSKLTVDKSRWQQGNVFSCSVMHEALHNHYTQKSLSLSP
light: B1 light
BIACORE fold (relative binding, original Ab1=1.00) (soluble human FcγRIIb [2]): 1.02 fold

B17: Ab1H-P1512m/Ab1L (antibody, human IgG1, kappa, name in EU numbering)
heavy: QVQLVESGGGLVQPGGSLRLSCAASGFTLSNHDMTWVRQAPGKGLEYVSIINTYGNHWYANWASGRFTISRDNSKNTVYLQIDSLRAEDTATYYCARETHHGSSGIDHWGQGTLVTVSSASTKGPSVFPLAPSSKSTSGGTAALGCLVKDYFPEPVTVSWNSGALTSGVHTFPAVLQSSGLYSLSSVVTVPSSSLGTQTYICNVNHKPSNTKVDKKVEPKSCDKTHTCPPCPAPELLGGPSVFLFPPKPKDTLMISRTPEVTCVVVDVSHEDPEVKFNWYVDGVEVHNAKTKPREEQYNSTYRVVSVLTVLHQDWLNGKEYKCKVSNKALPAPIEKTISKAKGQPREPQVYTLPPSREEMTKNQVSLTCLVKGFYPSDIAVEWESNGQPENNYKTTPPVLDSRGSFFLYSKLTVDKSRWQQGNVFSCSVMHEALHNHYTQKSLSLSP
light: B1 light
notes: copies: 2 + 2
BIACORE fold (relative binding, original Ab1=1.00) (soluble human FcγRIIb [2]): 1.24 fold

B18: Ab1H-P1513m/Ab1L (antibody, human IgG1, kappa, name in EU numbering)
heavy: not shown
light: B1 light
notes: copies: 2 + 2
BIACORE fold (relative binding, original Ab1=1.00) (soluble human FcγRIIb [2]): 1.21 fold

B19: Ab1H-P1514m/Ab1L (antibody, human IgG1, kappa, name in EU numbering)
heavy: not shown
light: B1 light
notes: copies: 2 + 2
BIACORE fold (relative binding, original Ab1=1.00) (soluble human FcγRIIb [2]): 1.2 fold

B20: Ab1H-P1515m/Ab1L (antibody, human IgG1, kappa, name in EU numbering)
heavy: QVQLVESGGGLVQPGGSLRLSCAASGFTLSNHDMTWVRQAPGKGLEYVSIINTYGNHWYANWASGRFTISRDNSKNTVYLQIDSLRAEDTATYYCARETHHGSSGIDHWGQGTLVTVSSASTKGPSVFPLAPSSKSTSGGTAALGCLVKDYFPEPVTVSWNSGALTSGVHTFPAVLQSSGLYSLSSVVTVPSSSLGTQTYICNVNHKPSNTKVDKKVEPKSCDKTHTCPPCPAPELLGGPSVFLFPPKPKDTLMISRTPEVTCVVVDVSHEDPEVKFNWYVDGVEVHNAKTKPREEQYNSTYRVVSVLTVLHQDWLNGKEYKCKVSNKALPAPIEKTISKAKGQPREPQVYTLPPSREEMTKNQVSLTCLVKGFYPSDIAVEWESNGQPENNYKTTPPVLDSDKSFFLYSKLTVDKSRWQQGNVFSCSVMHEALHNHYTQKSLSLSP
light: B1 light
notes: copies: 2 + 2
BIACORE fold (relative binding, original Ab1=1.00) (soluble human FcγRIIb [2]): 1.19 fold

B21: Ab1H-P1653m/Ab1L (antibody, human IgG1, kappa, name in EU numbering)
heavy: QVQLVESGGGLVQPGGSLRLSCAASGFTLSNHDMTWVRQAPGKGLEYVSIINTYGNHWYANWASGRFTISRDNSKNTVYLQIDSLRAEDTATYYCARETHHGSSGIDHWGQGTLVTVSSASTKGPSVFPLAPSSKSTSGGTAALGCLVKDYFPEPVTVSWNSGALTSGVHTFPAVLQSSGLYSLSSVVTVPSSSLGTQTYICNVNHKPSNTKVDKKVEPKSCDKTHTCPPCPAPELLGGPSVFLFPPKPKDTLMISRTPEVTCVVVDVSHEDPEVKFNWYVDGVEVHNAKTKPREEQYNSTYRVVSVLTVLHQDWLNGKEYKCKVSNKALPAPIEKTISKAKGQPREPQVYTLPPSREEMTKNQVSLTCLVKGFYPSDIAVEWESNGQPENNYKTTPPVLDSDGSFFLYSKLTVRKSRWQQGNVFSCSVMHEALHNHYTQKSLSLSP
light: B1 light
notes: copies: 2 + 2
BIACORE fold (relative binding, original Ab1=1.00) (soluble human FcγRIIb [2]): 0.79 fold

B22: Ab2 (antibody, human IgG1, kappa, V domains shown)
VH: QSVEESGGRLVTPGTPLTLTCTVSGFSLSSFNMDWVRQAPGEGLEWIGAVSTGGSAYYAKWAKGRFTISKTSTAVDLKITSPTTEDTATYFCARVDSSGWGYFDLWGQGTLVTVSS
VL: AIEMTQTPFSVSAAVGGTVTINCQASENIYSSLAWYQQKPGQPPKLLIYYASNLASGVSSRFKGSGSGTDFTLTISDLECADAATYYCQSYYFISSTDFNAFGGGTEVVVKR
Kd (human IgE [3]): 97 nM | koff (human IgE [3]): 0.053 s⁻¹ | kon (human IgE [3]): 550000 M⁻¹ s⁻¹ | Kd (human IgE [4]): 1.5 nM | koff (human IgE [4]): 0.0045 s⁻¹ | kon (human IgE [4]): 2.9e+06 M⁻¹ s⁻¹

B23: Ab3 (antibody, human IgG1, kappa, V domains shown)
VH: QSLEESGGDLVKPGASLTLTCTTSVFDLSSYYWICWVRQAPGKGLEWIACVYATSGSTDYATWAKGRLTISKASSTTVTLQMTSLTAADTATYFCARGGIYGGDGFNLWGPGTLVTVSS
VL: AFELTQTPASVEAAVGGTVTINCQASESISNWLAWYQQKPGQPPKLLIYRASTLTSGVPSRFKGSGSGTEFTLTISDLECADAATYYCQSYDPSIIDGFAFGGGTEVVVKR
Kd (human IgE [3]): 230 nM | koff (human IgE [3]): 0.033 s⁻¹ | kon (human IgE [3]): 140000 M⁻¹ s⁻¹ | Kd (human IgE [4]): 4.9 nM | koff (human IgE [4]): 0.0079 s⁻¹ | kon (human IgE [4]): 1.6e+06 M⁻¹ s⁻¹

B24: H1000/L0442 (antibody, human IgG1, kappa, name in Kabat numbering, V domains shown)
VH: QVQLVESGGGLVQPGGSLRLSCAASGFTFSEYYLSWVRQAPGKGLEWVGLIRNKDNHHTPEYSASVKGRFTISRDDSKNSLYLTMSDLKTEDTAVYYCARENHRYDVELAYWGQGTLVTVSS
VL: DIQMTQSPSSLSASVGDRVTITCRASEIIYEYLAWYQQKPGKAPKLLIYKAKTHADGVPSRFSGSGSGTDFTFTISSLQPEDIATYYCKHHFGFPRTFGQGTKVEIKR
Kd (human IL-8): 71000 nM

B25: H1050/L0395 (antibody, human IgG1, kappa, name in Kabat numbering, V domains shown)
VH: B24 VH with H57Y
VL: B24 VL with E31S
Kd (human IL-8): 7700 nM
